Data reported in paper PMC4570271, “Resolution of structure of PIP5K1A reveals molecular mechanism for its regulation by dimerization and dishevelled” (Nature Communications, 2015).

Experiments:
[1] = target: T1, GST-tagged DIX domain of mouse DVL1 (residues 1-106) with Y17D (mouse, UniProt P51141 1-106, Y17D); experiment: pull-down; GST-DIX (or GST) 0.5 μg and His-tagged PIP5K1 0.5 μg in 200 μl of 10 mM HEPES (pH 7.4), 150 mM NaCl, 0.2% Triton, 0.01% SDS, 3 mM dithiothreitol, 10% glycerol; 4 °C overnight; glutathione beads; western blotting; conditions: both partners purified
T1 construct: DIX domain of mouse DVL1, residues 1-106, Y17D to eliminate DIX aggregation; A longer construct 1-200 (DIX-L) is named in the methods but tied to no experiment; also called DVL DIX; GST-DVL; source: E. coli, purified (glutathione-agarose beads, size-exclusion chromatography)
T1 sequence (looked up): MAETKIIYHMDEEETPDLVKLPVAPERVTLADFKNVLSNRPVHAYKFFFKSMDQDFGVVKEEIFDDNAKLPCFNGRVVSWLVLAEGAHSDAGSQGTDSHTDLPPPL

[2] = target: T1, GST-tagged DIX domain of mouse DVL1 …; experiment: cell-based or functional assay
Dix109 = target: T2, Dix109; experiment: ITC; conditions: chain shown with the change;
T2 chain: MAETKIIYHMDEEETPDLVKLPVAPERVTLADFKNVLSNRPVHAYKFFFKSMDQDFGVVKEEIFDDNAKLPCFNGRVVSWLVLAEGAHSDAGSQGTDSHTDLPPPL

B1: zebrafish PIP5K1A kinase catalytic domain, D276A mutant (domain or fragment)
chain: MASTGETTYKKTTSSALKGAIQLGITHSVGSLSQKPERDVLMQDFEVVESIFFPSQGSSSTPGHHHGDFKFKTYAPIAFRYFREMFGIRPDDYLYSLCNEPLIELSNPGASGSLFYVSSDDEFIIKTVQHKEAEFLQTLLPGYFMNLNQNMRTLLPKFYGLYCVQADGKNIRIVVMNNLLPRAVPMHLKFDLKGSTYKRRASPKERSKGVPTYKDLDFMQDMPEGILLENAHYTALSRTMQRDCRVLQSFKIMDYSLLVGIHILHRAGEEASTAVPDTQKKGQGQKPLYCTAIESIQGESKSKTSPQPYESMGGIPAFNSKGERLLVFIGIIDILQSYRLVKKLEHSWKALLHDGDTVSVHRPSFYADRFQKFMCSTVFRKSQLKTLE
notes: kinase catalytic domain of zebrafish PIP5K1Aα, residues 49-431; C-terminal 'Leu-Glu' that precedes the His6 tag; source: E. coli BL21-CodonPlus(DE3)-RIL, purified in the same way as the wild-type protein; not shown: His6, C-terminal, kept
reduction of the interaction against the wild type [1]: > 70%

B2: zebrafish PIP5K1A kinase catalytic domain, E82A mutant (domain or fragment)
chain: MASTGETTYKKTTSSALKGAIQLGITHSVGSLSQKPARDVLMQDFEVVESIFFPSQGSSSTPGHHHGDFKFKTYAPIAFRYFREMFGIRPDDYLYSLCNEPLIELSNPGASGSLFYVSSDDEFIIKTVQHKEAEFLQTLLPGYFMNLNQNMRTLLPKFYGLYCVQADGKNIRIVVMNNLLPRAVPMHLKFDLKGSTYKRRASPKERSKGVPTYKDLDFMQDMPEGILLENDHYTALSRTMQRDCRVLQSFKIMDYSLLVGIHILHRAGEEASTAVPDTQKKGQGQKPLYCTAIESIQGESKSKTSPQPYESMGGIPAFNSKGERLLVFIGIIDILQSYRLVKKLEHSWKALLHDGDTVSVHRPSFYADRFQKFMCSTVFRKSQLKTLE
notes: as for B1
change in the interaction against the wild type [1]: ≤ 20%

B3: zebrafish PIP5K1A kinase catalytic domain, E149A mutant (domain or fragment)
chain: MASTGETTYKKTTSSALKGAIQLGITHSVGSLSQKPERDVLMQDFEVVESIFFPSQGSSSTPGHHHGDFKFKTYAPIAFRYFREMFGIRPDDYLYSLCNEPLIALSNPGASGSLFYVSSDDEFIIKTVQHKEAEFLQTLLPGYFMNLNQNMRTLLPKFYGLYCVQADGKNIRIVVMNNLLPRAVPMHLKFDLKGSTYKRRASPKERSKGVPTYKDLDFMQDMPEGILLENDHYTALSRTMQRDCRVLQSFKIMDYSLLVGIHILHRAGEEASTAVPDTQKKGQGQKPLYCTAIESIQGESKSKTSPQPYESMGGIPAFNSKGERLLVFIGIIDILQSYRLVKKLEHSWKALLHDGDTVSVHRPSFYADRFQKFMCSTVFRKSQLKTLE
notes: as for B1
change in the interaction against the wild type [1]: ≤ 20%

B4: zebrafish PIP5K1A kinase catalytic domain, E167A mutant (domain or fragment)
chain: MASTGETTYKKTTSSALKGAIQLGITHSVGSLSQKPERDVLMQDFEVVESIFFPSQGSSSTPGHHHGDFKFKTYAPIAFRYFREMFGIRPDDYLYSLCNEPLIELSNPGASGSLFYVSSDDAFIIKTVQHKEAEFLQTLLPGYFMNLNQNMRTLLPKFYGLYCVQADGKNIRIVVMNNLLPRAVPMHLKFDLKGSTYKRRASPKERSKGVPTYKDLDFMQDMPEGILLENDHYTALSRTMQRDCRVLQSFKIMDYSLLVGIHILHRAGEEASTAVPDTQKKGQGQKPLYCTAIESIQGESKSKTSPQPYESMGGIPAFNSKGERLLVFIGIIDILQSYRLVKKLEHSWKALLHDGDTVSVHRPSFYADRFQKFMCSTVFRKSQLKTLE
notes: as for B1
change in the interaction against the wild type [1]: ≤ 20%

B5: zebrafish PIP5K1A kinase catalytic domain, F131A mutant (domain or fragment)
chain: MASTGETTYKKTTSSALKGAIQLGITHSVGSLSQKPERDVLMQDFEVVESIFFPSQGSSSTPGHHHGDFKFKTYAPIAFRYFREMAGIRPDDYLYSLCNEPLIELSNPGASGSLFYVSSDDEFIIKTVQHKEAEFLQTLLPGYFMNLNQNMRTLLPKFYGLYCVQADGKNIRIVVMNNLLPRAVPMHLKFDLKGSTYKRRASPKERSKGVPTYKDLDFMQDMPEGILLENDHYTALSRTMQRDCRVLQSFKIMDYSLLVGIHILHRAGEEASTAVPDTQKKGQGQKPLYCTAIESIQGESKSKTSPQPYESMGGIPAFNSKGERLLVFIGIIDILQSYRLVKKLEHSWKALLHDGDTVSVHRPSFYADRFQKFMCSTVFRKSQLKTLE
notes: as for B1
change in the interaction against the wild type [1]: ≤ 20%

B6: zebrafish PIP5K1A kinase catalytic domain, K426A mutant (domain or fragment)
chain: MASTGETTYKKTTSSALKGAIQLGITHSVGSLSQKPERDVLMQDFEVVESIFFPSQGSSSTPGHHHGDFKFKTYAPIAFRYFREMFGIRPDDYLYSLCNEPLIELSNPGASGSLFYVSSDDEFIIKTVQHKEAEFLQTLLPGYFMNLNQNMRTLLPKFYGLYCVQADGKNIRIVVMNNLLPRAVPMHLKFDLKGSTYKRRASPKERSKGVPTYKDLDFMQDMPEGILLENDHYTALSRTMQRDCRVLQSFKIMDYSLLVGIHILHRAGEEASTAVPDTQKKGQGQKPLYCTAIESIQGESKSKTSPQPYESMGGIPAFNSKGERLLVFIGIIDILQSYRLVKKLEHSWKALLHDGDTVSVHRPSFYADRFQKFMCSTVFRASQLKTLE
notes: as for B1
change in the interaction against the wild type [1]: ≤ 20%

B7: zebrafish PIP5K1A kinase catalytic domain, L150A mutant (domain or fragment)
chain: MASTGETTYKKTTSSALKGAIQLGITHSVGSLSQKPERDVLMQDFEVVESIFFPSQGSSSTPGHHHGDFKFKTYAPIAFRYFREMFGIRPDDYLYSLCNEPLIEASNPGASGSLFYVSSDDEFIIKTVQHKEAEFLQTLLPGYFMNLNQNMRTLLPKFYGLYCVQADGKNIRIVVMNNLLPRAVPMHLKFDLKGSTYKRRASPKERSKGVPTYKDLDFMQDMPEGILLENDHYTALSRTMQRDCRVLQSFKIMDYSLLVGIHILHRAGEEASTAVPDTQKKGQGQKPLYCTAIESIQGESKSKTSPQPYESMGGIPAFNSKGERLLVFIGIIDILQSYRLVKKLEHSWKALLHDGDTVSVHRPSFYADRFQKFMCSTVFRKSQLKTLE
notes: kinase catalytic domain of zebrafish PIP5K1Aα, residues 49-431; C-terminal 'Leu-Glu' that precedes the His6 tag; also called Leu-150 to Ala; source: E. coli BL21-CodonPlus(DE3)-RIL, purified in the same way as the wild-type protein; not shown: His6, C-terminal, kept
change in the interaction against the wild type [1]: ≤ 20%

B8: zebrafish PIP5K1A kinase catalytic domain, Q194A mutant (domain or fragment)
chain: MASTGETTYKKTTSSALKGAIQLGITHSVGSLSQKPERDVLMQDFEVVESIFFPSQGSSSTPGHHHGDFKFKTYAPIAFRYFREMFGIRPDDYLYSLCNEPLIELSNPGASGSLFYVSSDDEFIIKTVQHKEAEFLQTLLPGYFMNLNANMRTLLPKFYGLYCVQADGKNIRIVVMNNLLPRAVPMHLKFDLKGSTYKRRASPKERSKGVPTYKDLDFMQDMPEGILLENDHYTALSRTMQRDCRVLQSFKIMDYSLLVGIHILHRAGEEASTAVPDTQKKGQGQKPLYCTAIESIQGESKSKTSPQPYESMGGIPAFNSKGERLLVFIGIIDILQSYRLVKKLEHSWKALLHDGDTVSVHRPSFYADRFQKFMCSTVFRKSQLKTLE
notes: kinase catalytic domain of zebrafish PIP5K1Aα, residues 49-431; C-terminal 'Leu-Glu' that precedes the His6 tag; also called Q194 mutant; source: E. coli BL21-CodonPlus(DE3)-RIL, purified in the same way as the wild-type protein; not shown: His6, C-terminal, kept
change in the interaction against the wild type [1]: ≤ 20%

B9: zebrafish PIP5K1A kinase catalytic domain, S78A mutant (domain or fragment)
chain: MASTGETTYKKTTSSALKGAIQLGITHSVGSLAQKPERDVLMQDFEVVESIFFPSQGSSSTPGHHHGDFKFKTYAPIAFRYFREMFGIRPDDYLYSLCNEPLIELSNPGASGSLFYVSSDDEFIIKTVQHKEAEFLQTLLPGYFMNLNQNMRTLLPKFYGLYCVQADGKNIRIVVMNNLLPRAVPMHLKFDLKGSTYKRRASPKERSKGVPTYKDLDFMQDMPEGILLENDHYTALSRTMQRDCRVLQSFKIMDYSLLVGIHILHRAGEEASTAVPDTQKKGQGQKPLYCTAIESIQGESKSKTSPQPYESMGGIPAFNSKGERLLVFIGIIDILQSYRLVKKLEHSWKALLHDGDTVSVHRPSFYADRFQKFMCSTVFRKSQLKTLE
notes: as for B1
reduction of the interaction against the wild type [1]: > 70%

B10: zebrafish PIP5K1A kinase catalytic domain, Y126A mutant (domain or fragment)
chain: MASTGETTYKKTTSSALKGAIQLGITHSVGSLSQKPERDVLMQDFEVVESIFFPSQGSSSTPGHHHGDFKFKTYAPIAFRAFREMFGIRPDDYLYSLCNEPLIELSNPGASGSLFYVSSDDEFIIKTVQHKEAEFLQTLLPGYFMNLNQNMRTLLPKFYGLYCVQADGKNIRIVVMNNLLPRAVPMHLKFDLKGSTYKRRASPKERSKGVPTYKDLDFMQDMPEGILLENDHYTALSRTMQRDCRVLQSFKIMDYSLLVGIHILHRAGEEASTAVPDTQKKGQGQKPLYCTAIESIQGESKSKTSPQPYESMGGIPAFNSKGERLLVFIGIIDILQSYRLVKKLEHSWKALLHDGDTVSVHRPSFYADRFQKFMCSTVFRKSQLKTLE
notes: as for B1
reduction of the interaction against the wild type [1]: > 70%

B11: zebrafish PIP5K1A kinase catalytic domain, Y140A mutant (domain or fragment)
chain: MASTGETTYKKTTSSALKGAIQLGITHSVGSLSQKPERDVLMQDFEVVESIFFPSQGSSSTPGHHHGDFKFKTYAPIAFRYFREMFGIRPDDYLASLCNEPLIELSNPGASGSLFYVSSDDEFIIKTVQHKEAEFLQTLLPGYFMNLNQNMRTLLPKFYGLYCVQADGKNIRIVVMNNLLPRAVPMHLKFDLKGSTYKRRASPKERSKGVPTYKDLDFMQDMPEGILLENDHYTALSRTMQRDCRVLQSFKIMDYSLLVGIHILHRAGEEASTAVPDTQKKGQGQKPLYCTAIESIQGESKSKTSPQPYESMGGIPAFNSKGERLLVFIGIIDILQSYRLVKKLEHSWKALLHDGDTVSVHRPSFYADRFQKFMCSTVFRKSQLKTLE
notes: kinase catalytic domain of zebrafish PIP5K1Aα, residues 49-431; the residue is printed 'Try-140' in the results and Y140A later; C-terminal 'Leu-Glu' that precedes the His6 tag; also called Try-140 to Ala; source: E. coli BL21-CodonPlus(DE3)-RIL, purified in the same way as the wild-type protein; not shown: His6, C-terminal, kept
change in the interaction against the wild type [1]: ≤ 20%

B12: zebrafish PIP5K1A kinase catalytic domain, triple D84R/L86A/V291A (DLV) mutant (domain or fragment)
chain: MASTGETTYKKTTSSALKGAIQLGITHSVGSLSQKPERRVAMQDFEVVESIFFPSQGSSSTPGHHHGDFKFKTYAPIAFRYFREMFGIRPDDYLYSLCNEPLIELSNPGASGSLFYVSSDDEFIIKTVQHKEAEFLQTLLPGYFMNLNQNMRTLLPKFYGLYCVQADGKNIRIVVMNNLLPRAVPMHLKFDLKGSTYKRRASPKERSKGVPTYKDLDFMQDMPEGILLENDHYTALSRTMQRDCRALQSFKIMDYSLLVGIHILHRAGEEASTAVPDTQKKGQGQKPLYCTAIESIQGESKSKTSPQPYESMGGIPAFNSKGERLLVFIGIIDILQSYRLVKKLEHSWKALLHDGDTVSVHRPSFYADRFQKFMCSTVFRKSQLKTLE
fold activation of the lipid kinase activity by DIX [2]: > 30 fold
Kd (Dix109; parent: 1.2 µM): 800 nM
other: N (Dix109; parent: 1.01 ± 0.09): 0.98
other: -TΔS (Dix109; parent: 120 ± 16 KJ mol-1): 53.8 kcal/mol
dG (Dix109; parent: -31.0 ± 3.5 KJ mol-1): -8.32 kcal/mol
other: ΔH (Dix109; parent: -151 ± 19 KJ mol-1): -62.1 kcal/mol
